The record followed here is article PMC2885054.

Experiment [1] deals with V5-tagged BUNV L protein expressed from a transfected cDNA construct (Bunyamwera virus) (UniProt P20470). The experiment is described as follows: co-IP; as a2, but with a viral transcript co-expressed: N from pT7riboBUNS (also full-length S antigenome RNA), or additionally pT7riboBUNM(+) or minigenome pT7riboBUNMREN(-); bands quantified by phosphorimager and normalised to expression.

For experiment [2], the target named is Bunyamwera virus (BUNV) nucleoprotein (N) (Bunyamwera virus) (UniProt P16495). The experiment is described as above.

“Bunyamwera virus (BUNV) nucleoprotein (N) (from UniProt P16495 1-233) (natural protein)” came in with a fold more co-precipitated than in cells transfected with pTM1-BUNS in experiment [1] of 5 fold.
The substance “V5-tagged BUNV L protein expressed from a transfected cDNA construct (from UniProt P20470 1-2238)” had a fold more co-precipitated than in cells transfected with pTM1-BUNS in experiment [2] of 8 fold.
